From paper PMC3852661, “Structural basis of SUFU–GLI interaction in human Hedgehog signalling regulation” (Acta Crystallographica Section D: Biological Crystallography, 2013)
Blank lines part the entries; values can stand above or below the molecule they belong to.

Tests used:
[1] = Thermal stability of MBP-SUFU constructs; assay type: physicochemical; conditions: SYPRO Orange, 2.2 µM protein, no peptide, 50 mM Na HEPES pH 7.0, 50 mM NaCl, 5 mM β-mercaptoethanol; heated 20 to 90°C; triplicate
Method: Recombinant MBP-SUFU proteins were diluted to 2.6 µM in 50 mM Na HEPES pH 7.0, 50 mM NaCl, 5 mM β-mercaptoethanol; the peptides GLI1p and GLI1p-SH (Supplementary Table S1b), synthesized by Dr W. Mawby (University of Bristol), were dissolved in the same buffer. Proteins were spun at 14 000g for 20 min at 4°C before adding SYPRO Orange (Molecular Probes) to a final concentration of 6×. Reaction volumes of 25 µl were prepared in 96-well PCR plates with 2.2 µM protein/SYPRO Orange solution and, where applicable, 44 µM peptide. Plates were sealed with optical tape, heated from 20 to 90°C in 12 s 0.2°C steps in an iCycler and fluorescence was detected using an excitation wavelength of 470 nm and an emission wavelength of 570 nm.
To determine whether the IDR affects the GLI-binding properties of SUFU, we used a human GLI1-derived peptide (GLI1p; residues 115–131; Supplementary Table S1b) containing the highly conserved SYGH motif important for interaction with SUFU (Dunaeva et al., 2003[▶]) in a thermal stability assay with MBP-SUFU-FL and MBP-SUFU-Δ (Fig. 4 ▶ a). The addition of GLI1p stabilized both proteins: T m for MBP-SUFU-FL was shifted by 4°C and that for MBP-SUFU-Δ was shifted by 3.6°C. […] The GLI1 dose dependency of this effect was confirmed in a separate experiment with increasing GLI1p concentrations (Supplementary Fig. S7a).

[2] = system: trypsin; assay: Limited proteolysis with trypsin; assay type: physicochemical; conditions: 100 mM ammonium bicarbonate, 23°C
Method: SUFU32–484 cloned in pLJMBP6c was expressed in E. coli and purified as described above. The purified protein was digested with trypsin (Sigma–Aldrich) in 100 mM ammonium bicarbonate at 23°C. The protease was inactivated by adding 10 mM PMSF and sample-loading buffer followed by heating at 95°C for 5 min. Protein bands were separated by SDS–PAGE and visualized by Coomassie Blue staining. Proteolytic peptide fragments were identified by N-terminal sequencing (Alphalyse A/S) as well as MALDI–TOF and MALDI–TOF/TOF mass-spectrometric analyses (Ultraflex II and Autoflex III, Bruker Daltonics).

[3] = system: GLI1; assay: Co-immunoprecipitation with GLI1; assay type: binding; conditions: Cos-7 cell lysates, GLI1-FLAG and Myc-SUFU; four independent experiments
Method: Cos-7 cells were transfected separately with C-terminally FLAG-tagged GLI1 in pCMV5 (Andersson et al., 1989[▶]) and N-terminally Myc-tagged SUFU in pCMV-Script (Stratagene) using Fugene 6 (Roche). 24 h after transfection, the cells were lysed with 50 mM Tris–HCl pH 7.4, 150 mM NaCl, 1% NP-40, 0.25% sodium deoxycholate, 1 mM N-ethylmaleimide (Fluka), 1 mM dithiothreitol and cOmplete Mini protease inhibitors (Roche). Normalized lysates were combined and pre-incubated for 6 h. Co-immunoprecipitation was performed for 16 h using agarose-conjugated anti-FLAG M2 (Sigma–Aldrich) and anti-Myc 9b11 (Cell Signaling) antibodies. The beads were washed three times with 500 µl lysis buffer and the bound protein was eluted by boiling the beads in SDS–PAGE sample buffer and analyzed by Western blotting. Samples were separated by SDS–PAGE, transferred to polyvinylidene fluoride Immobilon-P membranes (Millipore) and probed using anti-Myc 71D10 (Cell Signaling) or anti-Myc 9E10 (Santa Cruz) antibodies and anti-DYKDDDDK tag antibody (Cell Signaling). Similar results were obtained in four independent experiments.

[4] = system: GLI1; assay: GLI1-induced reporter gene activity in HEK 293 cells; assay type: cell-based; conditions: transient transfection, HEK 293, 12GLI-RE-TKO-luc luciferase reporter, 48 h
Text: (§1) SUFU variants with mutated IDR regions, the SUFU-Δ, SUFU-SH, SUFU-SH2 and SUFU-IDRfly constructs, were generated by replacing amino acids 279–360 of N-terminally Myc-tagged full-length SUFU in pcDNA3.1 (Invitrogen) with corresponding sequences synthesized at GenScript USA Inc. (Supplementary Table S1a). HEK 293 cells were transfected with a mixture of GLI1-FLAG or Myc-GLI2 (Roessler et al., 2005[▶]; a kind gift from Erich Roessler) and Myc-SUFU constructs together with 12GLI-RE-TKO-luc luciferase reporter (Kogerman et al., 1999[▶]) and pRL-SV40 (Promega) internal control using Fugene 6 or X-tremeGENE 9 (Roche) transfection reagent. Expression assays were carried out for 48 h, followed by luciferase activity measurements using a Dual Luciferase Activity Assay Kit (Promega). To verify the expression levels of transfected SUFU and GLI constructs, aliquots of cell lysates were separated by SDS–PAGE and subjected to immunoblot analysis as above. The densities of the visualized protein bands were quantified using the ImageJ 1.47v image-analysis and image-processing software (Schneider et al., 2012[▶]).

[5] = system: Hh pathway, Sufu −/− MEFs; assay: Constitutive Hh pathway activity in Sufu −/− MEFs; assay type: cell-based, mouse; conditions: Gli-BS luciferase reporter
Method: Sufu ^−/− mouse embryonic fibroblast (MEF) cells (Svärd et al., 2006[▶]) were transfected with a mixture of p8x3′Gli-BS LucII or p8x3′Gli-mBS LucII reporter constructs (Sasaki et al., 1997[▶]; generous gifts from Hiroshi Sasaki) together with pRL-SV40 (Promega) internal control using Lipofectamine LTX with Plus reagent (Invitrogen) according to the manufacturer’s instructions. Following transfection, Sufu ^−/− MEF cells were grown until the culture reached confluency (24–48 h) and the cells were then switched to low-serum medium (0.5% FBS) with 100–200 nM SAG (kindly provided by Jan Bergman, Karolinska Institutet), 10 µM purmorphamine (Calbiochem) or Shh conditioned medium (1:4) and grown for an additional 48–72 h. Cell lysis and luciferase activity measurements were performed using a Dual Luciferase Activity Assay Kit (Promega). For statistical evaluation of reporter gene assays, a one-tailed paired Student’s t-test was used. All activity measurements were performed at least three times in independent experiments.

[6] = system: GLI2; assay: GLI2-induced reporter gene activity in HEK 293 cells; assay type: cell-based; conditions: transient transfection, HEK 293, 12GLI-RE-TKO-luc luciferase reporter, 48 h
Text: as §1

[7] = R123C germline mutation; ref Aavikko et al., 2012; cited from earlier work
Text: SUFU is a tumour suppressor protein that is found to be inactivated most frequently (up to 50%) by germline mutations in children below the age of three presenting with medulloblastoma of the desmoplastic/nodular subtype (Slade et al., 2011[▶]; Brugières et al., 2012[▶]), whereas a somatic mutation frequency of about 10% has been reported for sporadic medulloblastomas of the desmoplastic subtype (Taylor et al., 2002[▶]). Moreover, germline or somatic mutations in the SUFU gene have recently been described in association with meningioma and chondrosarcoma (Aavikko et al., 2012[▶]; Kijima et al. ...

B1: MBP-SUFU-Δ: MBP-SUFU with amino acids 279–360 replaced by the heptamer sequence PSRGEDP (protein)
chain: PGLHAIYGECRRLYPDQPNPLQVTAIVKYWLGGPDPLDYVSMYRNVGSPSANIPEHWHYISFGLSDLYGDNRVHEFTGTDGPSGFGFELTFRLKRETGESAPPTWPAELMQGLARYVFQSENTFCSGDHVSWHSPLDNSESRIQHMLLTEDPQMQPVQTPFGVVTFLQIVGVCTEELHSAQQWNGQGILELLRTVPIAGGPWLITDMRRGETIFEIDPHLQERVDKGIETDGSNLSGVSAKCAWDDLPSRGEDPIRTRQLESVHLKFNQESGALIPLCLRGRLLHGRHFTYKSITGDMAITFVSTGVEGAFATEEHPYAAHGPWLQILLTEEFVEKMLEDLEDLTSPEEFKLPKEYSWPEKKLKVSILPDVVFDSPL
modifications: left off: MBP, N-terminal, kept | His6, C-terminal, state not stated
Tm [1]: 46.6 °C

B2: MBP-SUFU-FL: MBP fusion containing residues 32–483 of human SUFU and a C-terminal hexahistidine tag (protein)
chain: PGLHAIYGECRRLYPDQPNPLQVTAIVKYWLGGPDPLDYVSMYRNVGSPSANIPEHWHYISFGLSDLYGDNRVHEFTGTDGPSGFGFELTFRLKRETGESAPPTWPAELMQGLARYVFQSENTFCSGDHVSWHSPLDNSESRIQHMLLTEDPQMQPVQTPFGVVTFLQIVGVCTEELHSAQQWNGQGILELLRTVPIAGGPWLITDMRRGETIFEIDPHLQERVDKGIETDGSNLSGVSAKCAWDDLSRPPEDDEDSRSICIGTQPRRLSGKDTEQIRETLRRGLEINSKPVLPPINPQRQNGLAHDRAPSRKDSLESDSSTAIIPHELIRTRQLESVHLKFNQESGALIPLCLRGRLLHGRHFTYKSITGDMAITFVSTGVEGAFATEEHPYAAHGPWLQILLTEEFVEKMLEDLEDLTSPEEFKLPKEYSWPEKKLKVSILPDVVFDSPL
modifications: left off: MBP, N-terminal, kept | His6, C-terminal, state not stated
notes: MBP fusion containing residues 32–483 of human SUFU and a C-terminal hexahistidine tag
Tm [1]: 50.1 °C
protease-hypersensitive sites [2]: Several protease-hypersensitive sites were found clustered within residues 299–363

GLI1 binding in Co-IP [3]: no remarkable difference in GLI1 binding
B3: SUFU-FL: full-length SUFU, N-terminally Myc-tagged (protein)
chain: MAELRPSGAPGPTAPPAPGPTAPPAFASLFPPGLHAIYGECRRLYPDQPNPLQVTAIVKYWLGGPDPLDYVSMYRNVGSPSANIPEHWHYISFGLSDLYGDNRVHEFTGTDGPSGFGFELTFRLKRETGESAPPTWPAELMQGLARYVFQSENTFCSGDHVSWHSPLDNSESRIQHMLLTEDPQMQPVQTPFGVVTFLQIVGVCTEELHSAQQWNGQGILELLRTVPIAGGPWLITDMRRGETIFEIDPHLQERVDKGIETDGSNLSGVSAKCAWDDLSRPPEDDEDSRSICIGTQPRRLSGKDTEQIRETLRRGLEINSKPVLPPINPQRQNGLAHDRAPSRKDSLESDSSTAIIPHELIRTRQLESVHLKFNQESGALIPLCLRGRLLHGRHFTYKSITGDMAITFVSTGVEGAFATEEHPYAAHGPWLQILLTEEFVEKMLEDLEDLTSPEEFKLPKEYSWPEKKLKVSILPDVVFDSPLH
modifications: left off: Myc, N-terminal, kept
notes: full-length SUFU, N-terminally Myc-tagged
repression of transcriptional activity induced by GLI1 [4]: efficiently repressed
suppression of constitutive Hh pathway activity [5]: suppress constitutive pathway activity in Sufu ^−/− cells (c) with similar efficiency
repression of transcriptional activity induced by GLI2 [6]: efficiently repressed

B4: R123C: SUFU R123C mutation segregated with tumour development in a family predisposed to meningiomas (protein, UniProt Q9UMX1 1-484, looked up, variant R123C)
Suppressor of fused homolog: MAELRPSGAPGPTAPPAPGPTAPPAFASLFPPGLHAIYGECRRLYPDQPNPLQVTAIVKYWLGGPDPLDYVSMYRNVGSPSANIPEHWHYISFGLSDLYGDNRVHEFTGTDGPSGFGFELTFCLKRETGESAPPTWPAELMQGLARYVFQSENTFCSGDHVSWHSPLDNSESRIQHMLLTEDPQMQPVQTPFGVVTFLQIVGVCTEELHSAQQWNGQGILELLRTVPIAGGPWLITDMRRGETIFEIDPHLQERVDKGIETDGSNLSGVSAKCAWDDLSRPPEDDEDSRSICIGTQPRRLSGKDTEQIRETLRRGLEINSKPVLPPINPQRQNGLAHDRAPSRKDSLESDSSTAIIPHELIRTRQLESVHLKFNQESGALIPLCLRGRLLHGRHFTYKSITGDMAITFVSTGVEGAFATEEHPYAAHGPWLQILLTEEFVEKMLEDLEDLTSPEEFKLPKEYSWPEKKLKVSILPDVVFDSPLH
inhibitory activity in cellular assays [7]: reduced inhibitory activity
